Laboratory results published in patent US20260027190A1, “OVARIAN TUMOR DEUBIQUITINASE OXIDATION AND USES THEREOF” (The University of Vermont and State Agricultural College, priority 2022, published 2026).

Assays:
OTUB1 = assay: OTUB1-SSG: GSH immunoprecipitation followed by OTUB1 Western blot; format: cell-based, mouse; details: cells treated with recombinant protein
Procedure: OTUB1 was one of the PSSG targets detected in IL1B-stimulated epithelial cells raising the possibility that S-glutathionylation of OTUB1 affects the stability of SLC7A11. To investigate this, immunoprecipitation of GSH followed by Western Blotting of OTUB1 in MTE cells treated with vehicle or IL1B was performed. Dithiothreitol (DTT) was incubated with cell lysates prior to immunoprecipitation as a negative control. OTUB1 levels from whole cell lysates were used as the input control. Increases in OTUB1 S-glutathionylation (OTUB1-SSG) in response to IL1B were observed, with further increases occurring in cells lacking Glrx (FIG. 4G), consistent with the role of GLRX as a deglutathionylating enzyme. Western blots were performed using cells treated with the WT- or C23S-mutant GLRX recombinant protein to examine the presence of glutaredoxin (FIG. 4H) and total PSSG (FIG. 4I) (P-value*<0.05, **<0.01, ***<0.001, ****<0.0001). GAPDH was used as a loading control. Glutathione was evaluated in MTE cells treated with recombinant WT- or C23S-mutant GLRX (FIG. 4J) and glutamate in cell culture supernatant of MTE cells treated with WT or the C23S mutant GLRX was also evaluated (FIG. 4K). […]

H522 cells = assay: Synergy of GLRX and cisplatin in killing of H522 cells (Synergy Finder); format: cell-based; details: Chou-Talalay method (Synergy Finder)
H522 LUAD cells = assay: GSH levels in H522 LUAD cells; format: cell-based; details: administration of GLRX to H522 LUAD cells
Procedure: Cell lysates were prepared in 100 mM potassium phosphate buffer containing 0.6% sulfosalicylic acid, 1 mM ethylenediaminetetraacetic acid (EDTA) and 0.01% triton-x-100. To measure total glutathione (GSH), equal amounts of proteins were incubated with 3 micromolar 5,5′-dithio-bis (2-nitrobenzoic acid) (DTNB) reagent and 2.25 microgram/ml glutathione reductase followed by the addition of 240 micromolar Nicotinamide adenine dinucleotide phosphate (NADPH). Kinetic absorbance was measured every minute at 412 nm for 20 minutes. For protein S-glutathionylation (PSSG) measurement, 400 micrograms of protein was acetone precipitated and washed thoroughly to remove any free GSH. Pellets were reconstituted in 100 mM potassium phosphate buffer with 1 mM EDTA. Samples were then incubated with 1 mM sodium borohydride (NaBH4) or water (negative control) for 1 hour at room temperature. 10% metaphosphoric acid was added to all the samples, including controls, and left on ice for 10 minutes. Samples were centrifuged at 1000×g for 15 minutes and 20 microliters were loaded in a 96 well plate to measure PSSG using, 5′-dithio-bis-(2-nitrobenzoic acid) (DTNB) recycling enzyme method as stated above.

SLC7A11 = SLC7A11 levels in H522 LUAD cells; format: cell-based; details: administration of GLRX to H522 LUAD cells
Procedure: Bio-Rad DC protein estimation kit was used to determine protein concentration in cell lysates. Equal amounts of proteins were resolved using sodium dodecyl sulfate (SDS)-polyacrylamide gel electrophoresis and transferred to polyvinylidene difluoride (PVDF) membranes, blocked in 5% BSA and incubated with primary antibodies overnight. Membranes were subsequently incubated with peroxidase-conjugated secondary antibodies for one hour and then visualized using chemiluminescence.

OTUB1 and UBCH5A = assay: Interaction between OTUB1 and UBCH5A; format: cell-based; details: FIG. 14D
Description: OTUB1 was previously shown to interfere with ubiquitination and subsequent proteasomal degradation of SLC7A11. Overexpression of OTUB1 decreased ubiquitinated SLC7A11 (FIG. 17). […] The OTUB1-mediated attenuation of ubiquitination can occur through multiple mechanisms. OTUB1 can act as a canonical deubiquitinase that cleaves K48 chains. Alternatively, OTUB1 also can inhibit the function of E2 conjugating enzymes, including UBCH5 and OTUB1 has been found in a complex with E2 enzymes. Additionally, binding of E2 enzymes to OTUB1 can also promote OTUB1 deubiquitinase activity dependent on the ratio of ubiquitin-charged E2 to uncharged E2 enzyme and levels of free ubiquitin. OTUB1 D88 binds E2 enzymes and suppresses Ub-conjugating activity. Stabilization of SLC7A11 by OTUB1 has been speculated to involve directly binding between OTUB1 and SLC7A11 as well as the inhibition of E2 enzymes. […] These collective observations, along with observed increases in GSH following expression of OTUB1-C91S (FIG. 6C) support a non-canonical role of OTUB1 in augmenting GSH. […] To address this possible scenario, the present disclosure determined whether OTUB1-S-glutathionylation affected the interaction between OTUB1 and UBCH5A which requires the N-terminal region containing C23. […]

B1: GLRX: recombinant wild-type glutaredoxin protein, deglutathionylating enzyme, administered directly to cells (protein, UniProt P35754 2-106, looked up)
Glutaredoxin-1: AQEFVNCKIQPGKVVVFIKPTCPYCRRAQEILSQLPIKQGLLEFVDITATNHTNEIQDYLQQLTGARTVPRVFIGKDCIGGCSDLVSLQQSGELLTRLKQIGALQ
OTUB1-SSG (OTUB1 S-glutathionylation) (OTUB1): decreased
synergy with cisplatin (ZIP Score) (H522 cells): > 10
GSH levels (H522 LUAD cells): decreased
SLC7A11 levels (SLC7A11): decreased
interaction between OTUB1 and UBCH5A (OTUB1 and UBCH5A): decreases
